US20180305449A1 (ONCOMED PHARMACEUTICALS, published 2018)
Like-named read-outs stand apart in the source and are kept apart here.

Columns and labels:
biotin-DLL4-hFc [1] = biological target: T1, biotin-DLL4-hFc (UniProt Q9NR61 27-522, limits assumed, biotinylated (site not stated)); test: bispecific sandwich ELISA: antibody pre-incubated with 2 ug/ml biotin-DLL4-hFc, captured on VEGF-coated plate, detected with streptavidin-HRP
T1 construct: not shown: human Fc (hFc)
Procedure: (§1) FIG. 7. Bispecific antibody ELISA. Bispecific antibodies 219R45-MB-21M18, 219R45-MB-21R79, 219R45-MB-21R75, and 219R45-MB-21R83 were diluted in blocking buffer (lx PBS, 0.1% gelatin, 0.1% Polysorbate-20, pH 7.4) containing 2 μg/ml biotin-DLL4-hFc. The antibodies were serially diluted 3-fold from 500 ng/ml to 0.008 ng/ml. The antibody samples were incubated for 2 hours in blocking buffer containing the biotin-DLL4-hFc. After incubation, the antibody samples were transferred to a VEGF-coated assay plate (100 ul/well) and incubated for 2 hours. Streptavidin-HRP was added to each well and incubated for 1 hr. TMB substrate was added to the wells with a 10 minute color development and the reaction was stopped with 2M sulfuric acid. Absorbance was read at 450-650 nm and the data analyzed using the 4-parameter fit within the Softmax Pro analysis program.
as §1, with “VEGF (ATGEN, South Korea) was coated onto Nunc maxisorb plates at 2 ug/ml (100 μl/well) and incubated overnight at 2-8° C. Bispecific” for “FIG. 7. Bispecific antibody ELISA. Bispecific”, “to the” for “to a”, “Streptavidin-HRP (Jackson ImmunoResearch, West Grove, Pa.)” for “Streptavidin-HRP”, “analysis program (Molecular Devices, Sunnyvale, Calif.).” for “analysis program.”

[2] = biological target: T2, Recombinant human DLL4-Fc (human, UniProt Q9NR61 27-522, limits assumed); test: SPR (Biacore 2000), human DLL4-Fc on CM5 chip; ratio of KDs against 219R45-MB-21M18
T2 construct: also called hDLL4; hDLL4-Fc; not shown: Fc portion
Procedure: (§2) The KDs of parental antibodies anti-VEGF 219R45 (IgG format), anti-DLL4 21R79 (IgG format), anti-DLL4 21M18 (IgG format) and bispecific antibodies 219R45-MB-21M18 and 219R45-MB-21R79 were determined using a Biacore 2000 system from Biacore LifeSciences (GE Healthcare). Recombinant human DLL4-Fc or mouse DLL4-Fc proteins were immobilized on CM5 carboxyl chips using standard amine-based chemistry (NHS/EDC) and blocked with ethanolamine Recombinant human VEGF₁₆₅ or mouse VEGF₁₆₅ were biotinylated and immobilized on streptavidin chips. The antibodies were serially diluted 2-fold from 100 nM to 0.78 nM in HBS-P (0.01M HEPES pH7.4, 0.15M NaCl, 0.005% v/v Polysorbate 20). For each antibody, all 8 dilutions were sequentially injected over a specific chip. Kinetic data were collected over time and were fit using the simultaneous global fit equation to yield affinity constants (KD values) for each bispecific antibody.

[3] = biological target: T2, Recombinant human DLL4-Fc; test: SPR (Biacore 2000), human DLL4-Fc amine-coupled on CM5 chip, antibody as analyte
Procedure: as §2
Several additional anti-DLL4 antibodies were identified that had binding affinities intermediate to the KDs of 21M18 and 21R79. Two of these anti-DLL4 antibodies were used to produce anti-VEGF/anti-DLL4 bispecific antibodies 219R45-MB-21R75 and 219R45-MB-21R83. Using the Biacore 2000 system as described above, the KDs of the bispecific antibodies 219R45-MB-21R75 and 219R45-MB-21R83 to human DLL4 were determined.

[4] = biological target: T3, Recombinant human VEGF165 (human, UniProt P15692-4 27-191); test: SPR (Biacore 2000), biotinylated human VEGF165 on streptavidin chip, antibody as analyte
T3 construct: also called hVEGF; hVEGF165
Procedure: as §2

[5] = biological target: T4, Recombinant mouse VEGF165 (mouse, UniProt Q00731-2 27-190); test: SPR (Biacore 2000), biotinylated mouse VEGF165 on streptavidin chip, antibody as analyte
T4 construct: also called mVEGF
T4 sequence (looked up): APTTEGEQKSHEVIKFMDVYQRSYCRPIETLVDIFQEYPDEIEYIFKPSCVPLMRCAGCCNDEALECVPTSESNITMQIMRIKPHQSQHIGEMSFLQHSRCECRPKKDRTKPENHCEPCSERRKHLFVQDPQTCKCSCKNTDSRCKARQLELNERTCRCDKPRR
Procedure: as §2

biotin-DLL4-hFc [6] = biological target: T1, biotin-DLL4-hFc; test: Bispecific bridging ELISA: antibody pre-incubated with biotin-DLL4-hFc, captured on VEGF (ATGEN)-coated plate, streptavidin-HRP; potency relative to a reference anti-VEGF/anti-DLL4 bispecific antibody
Procedure: as §1, with “VEGF (ATGEN, South Korea) was coated onto Nunc maxisorb plates at 2 ug/ml (100 μl/well) and incubated overnight at 2-8° C. Bispecific” for “FIG. 7. Bispecific antibody ELISA. Bispecific”, “to the” for “to a”, “Streptavidin-HRP (Jackson ImmunoResearch, West Grove, Pa.)” for “Streptavidin-HRP”, “analysis program (Molecular Devices, Sunnyvale, Calif.).” for “analysis program.”

[7] = biological target: T2, Recombinant human DLL4-Fc; test: SPR (Biacore 2000), human DLL4-Fc amine-coupled on CM5 chip, antibody as analyte; remark: listed apart in the source
Procedure: as §2

biotin-DLL4-hFc [8] = biological target: T1, biotin-DLL4-hFc; test: Bispecific bridging ELISA (VEGF-coated plate, biotin-DLL4-hFc detection); ratio against 219R45-MB-21M18
Procedure: as §1, with “VEGF (ATGEN, South Korea) was coated onto Nunc maxisorb plates at 2 ug/ml (100 μl/well) and incubated overnight at 2-8° C. Bispecific” for “FIG. 7. Bispecific antibody ELISA. Bispecific”, “to the” for “to a”, “Streptavidin-HRP (Jackson ImmunoResearch, West Grove, Pa.)” for “Streptavidin-HRP”, “analysis program (Molecular Devices, Sunnyvale, Calif.).” for “analysis program.”

[9] = biological target: T2, Recombinant human DLL4-Fc; test: HTRF bridging assay: Europium cryptate-labeled hVEGF165 and d2-labeled hDLL4-Fc; signal needs both bound at once
Procedure: (§3) To characterize the binding capabilities of certain antibodies and/or antibody mixtures to both VEGF and DLL4, homogeneous time resolved fluorescence (HTRF) assays were performed. Antibodies tested were anti-VEGF/anti-DLL4 bispecific antibodies 219R45-MB-21M18 and 219R45-MB-21R79, parental antibodies 219R45 (anti-VEGF), 21M18 (anti-DLL4), 21R79 (anti-DLL4), a combination of 219R45 and 21M18, or a combination of 219R45 and 21R79. The antibodies or antibody mixtures were serially diluted 2-fold from 3000 nM to 2.9 nM in binding buffer (1×PBS, 0.1% gelatin, 0.1% Polysorbate 20, 400 mM potassium fluoride) and placed in a white 96-well plate. An equal volume of solution containing 4 μg/ml of d2-labeled hDLL4-Fc and 21.4 ng/ml Europium crypate-labeled hVEGF₁₆₅ was added to each well for a final volume of 100 μl (final concentrations of acceptor and donor fluorophores were 2 μg/ml and 10.7 ng/ml, respectively). The assay plates were incubated for 2 hours to overnight and read on a SpectraMax M5e Microplate reader (Molecular Devices, Sunnyvale Calif.) at an excitation wavelength of 314 nm.

[10] = biological target: T3, Recombinant human VEGF165; test: as above
Procedure: as §3

T2 sequence (Q9NR61 27-522 limits assumed): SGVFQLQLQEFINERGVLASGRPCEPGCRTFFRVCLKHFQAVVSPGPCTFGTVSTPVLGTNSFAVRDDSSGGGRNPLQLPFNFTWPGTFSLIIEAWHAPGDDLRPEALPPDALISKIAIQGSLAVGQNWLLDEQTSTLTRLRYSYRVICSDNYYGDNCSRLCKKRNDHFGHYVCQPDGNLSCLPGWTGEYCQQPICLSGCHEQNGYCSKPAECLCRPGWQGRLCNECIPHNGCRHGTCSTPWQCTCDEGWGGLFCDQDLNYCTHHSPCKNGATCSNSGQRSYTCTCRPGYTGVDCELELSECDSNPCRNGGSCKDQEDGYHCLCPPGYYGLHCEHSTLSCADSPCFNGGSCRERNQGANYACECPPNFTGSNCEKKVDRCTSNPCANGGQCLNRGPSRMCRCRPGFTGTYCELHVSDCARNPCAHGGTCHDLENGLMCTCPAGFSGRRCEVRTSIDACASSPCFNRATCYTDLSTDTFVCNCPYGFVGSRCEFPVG
T1 sequence (Q9NR61 27-522 limits assumed): as above

B1: anti-VEGF/anti-DLL4 bispecific antibody 219R45-MB-21R79 (bispecific antibody, human IgG2)
heavy 1: QVQLVQSGAEVKKPGASVKVSCKASGYTFTNYWMHWVRQAPGQGLEWMGDINPSNGRTSYKEKFKRRVTLSVDKSSSTAYMELSSLRSEDTAVYFCTIHYDDKYYPLMDYWGQGTLVTVSSASTKGPSVFPLAPCSRSTSESTAALGCLVKDYFPEPVTVSWNSGALTSGVHTFPAVLQSSGLYSLSSVVTVPSSNFGTQTYTCNVDHKPSNTKVDKTVERKCCVECPPCPAPPVAGPSVFLFPPKPKDTLMISRTPEVTCVVVDVSHEDPEVQFNWYVDGVEVHNAKTKPREEQFNSTFRVVSVLTVVHQDWLNGKEYKCKVSNKGLPAPIEKTISKTKGQPREPQVYTLPPSREKMTKNQVSLTCLVKGFYPSDIAVEWESNGQPENNYKTTPPMLKSDGSFFLYSKLTVDKSRWQQGNVFSCSVMHEALHNHYTQKSLSLSPGK
heavy 2: QVQLVQSGAEVKKPGASVKISCKASGYSFTAYYIHWVKQAPGQGLEWIGYIANYNRATNYNQKFKGRVTFTTDTSTSTAYMELRSLRSDDTAVYYCARDYDYDVGMDYWGQGTLVTVSSASTKGPSVFPLAPCSRSTSESTAALGCLVKDYFPEPVTVSWNSGALTSGVHTFPAVLQSSGLYSLSSVVTVPSSNFGTQTYTCNVDHKPSNTKVDKTVERKCCVECPPCPAPPVAGPSVFLFPPKPKDTLMISRTPEVTCVVVDVSHEDPEVQFNWYVDGVEVHNAKTKPREEQFNSTFRVVSVLTVVHQDWLNGKEYKCKVSNKGLPAPIEKTISKTKGQPREPQVYTLPPSREEMTKNQVSLTCLVEGFYPSDIAVEWESNGQPENNYKTTPPMLDSDGSFFLYSELTVDKSRWQQGNVFSCSVMHEALHNHYTQKSLSLSPGK
light: DIVMTQSPDSLAVSLGERATISCRASESVDNYGISFMKWFQQKPGQPPKLLIYAASNQGSGVPDRFSGSGSGTDFTLTISSLQAEDVAVYYCQQSKEVPWTFGGGTKVEIKRTVAAPSVIFPPSDEQLKSGTASVVCLLNNFYPREAKVQWKVDNALQSGNSQESVTEQDSKDSTYSLSSTLTLSKADYEKHKVYACEVTHQGLSSPVTKSFNRGEC
notes: Monovalent/bispecific IgG2 heterodimer with charge-modified CH3 domains and two identical light chains
biotin-DLL4-hFc [1]
  EC50 (read off the curve): ~0.6 ng/mL
[2]
  fold stronger binding than 219R45-MB-21M18: ~30 fold
[3]
  Kd: 0.53 nM
[4]
  Kd: 0.68 nM
[5]
  Kd: 12.5 nM
biotin-DLL4-hFc [6]
  Relative Potency (%): 501%
[7]
  Kd: 0.53 nM
biotin-DLL4-hFc [8]
  fold more potent than 219R45-MB-21M18: ~7 fold

B2: anti-VEGF antibody 219R45 (parental, IgG format) (antibody, V domains shown)
VH: QVQLVQSGAEVKKPGASVKVSCKASGYTFTNYWMHWVRQAPGQGLEWMGDINPSNGRTSYKEKFKRRVTLSVDKSSSTAYMELSSLRSEDTAVYFCTIHYDDKYYPLMDYWGQGTLVTVSS
VL: DIVMTQSPDSLAVSLGERATISCRASESVDNYGISFMKWFQQKPGQPPKLLIYAASNQGSGVPDRFSGSGSGTDFTLTISSLQAEDVAVYYCQQSKEVPWTFGGGTKVEIKR
notes: Tested as the bivalent parental antibody in IgG format; also called parental anti-VEGF antibody 219R45
[9]
  binding result: no binding
[4]
  Kd: 0.67 nM
[5]
  Kd: 22.9 nM

B3: anti-DLL4 antibody 21M18 (parental, IgG format) (antibody, V domains shown)
VH: QVQLVQSGAEVKKPGASVKISCKASGYSFTAYYIHWVKQAPGQGLEWIGYISSYNGATNYNQKFKGRVTFTTDTSTSTAYMELRSLRSDDTAVYYCARDYDYDVGMDYWGQGTLVTVSS
VL: DIVMTQSPDSLAVSLGERATISCRASESVDNYGISFMKWFQQKPGQPPKLLIYAASNQGSGVPDRFSGSGSGTDFTLTISSLQAEDVAVYYCQQSKEVPWTFGGGTKVEIK
notes: Tested in IgG format; also called anti-hDLL4 antibody 21M18
[10]
  binding result: no binding
[5]
  binding result: no binding (tested: 100 nM (highest concentration injected))
[7]
  Kd: < 0.1 nM

B4: anti-DLL4 antibody 21R79 (parental, IgG format) (antibody, V domains shown)
VH: QVQLVQSGAEVKKPGASVKISCKASGYSFTAYYIHWVKQAPGQGLEWIGYIANYNRATNYNQKFKGRVTFTTDTSTSTAYMELRSLRSDDTAVYYCARDYDYDVGMDYWGQGTLVTVSS
VL: DIVMTQSPDSLAVSLGERATISCRASESVDNYGISFMKWFQQKPGQPPKLLIYAASNQGSGVPDRFSGSGSGTDFTLTISSLQAEDVAVYYCQQSKEVPWTFGGGTKVEIKR
notes: Tested as the parental antibody in IgG format
[10]
  binding result: no binding
[5]
  binding result: no binding (tested: 100 nM (highest concentration injected))
[7]
  Kd: < 0.1 nM
